Results published in paper PMC4803055.

Target: T1, Mte1 (YGR042W) (Saccharomyces cerevisiae, UniProt P53227 1-271)
T1 sequence: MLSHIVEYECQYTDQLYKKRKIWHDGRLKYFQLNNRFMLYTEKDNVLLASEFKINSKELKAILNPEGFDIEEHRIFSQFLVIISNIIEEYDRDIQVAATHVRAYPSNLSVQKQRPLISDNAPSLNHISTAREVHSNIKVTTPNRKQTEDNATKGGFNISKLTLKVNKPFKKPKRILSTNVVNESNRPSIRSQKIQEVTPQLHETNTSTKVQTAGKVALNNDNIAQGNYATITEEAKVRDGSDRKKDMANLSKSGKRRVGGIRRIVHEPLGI
Assay: EMSA

## AGCTATGACCATGATTACGAATTGCTTAATTCGTGCAGGCATGGTAGCT (ssDNA) [ssDNA (oligo 1)]
  Kd: 16 ± 3 nM
